In IntAct's records for PubMed 26068854:

B1: Kinetochore protein Nuf2 (Homo sapiens), Q9BZD4 (parent)
chain: METLSFPRYNVAEIVIHIRNKILTGADGKNLTKNDLYPNPKPEVLHMIYMRALQIVYGIRLEHFYMMPVNSEVMYPHLMEGFLPFSNLVTHLDSFLPICRVNDFETADILCPKAKRTSRFLSGIINFIHFREACRETYMEFLWQYKSSADKMQQLNAAHQEALMKLERLDSVPVEEQEEFKQLSDGIQELQQSLNQDFHQKTIVLQEGNSQKKSNISEKTKRLNELKLSVVSLKEIQESLKTKIVDSPEKLKNYKEKMKDTVQKLKNARQEVVEKYEIYGDSVDCLPSCQLEVQLYQKKIQDLSDNREKLASILKESLNLEDQIESDESELKKLKTEENSFKRLMIVKKEKLATAQFKINKKHEDVKQYKRTVIEDCNKVQEKRGAVYERVTTINQEIQKIKLGIQQLKDAAEREKLKSQEIFLNLKTALEKYHDGIEKAAEDSYAKIDEKTAELKRKMFKMST
partner: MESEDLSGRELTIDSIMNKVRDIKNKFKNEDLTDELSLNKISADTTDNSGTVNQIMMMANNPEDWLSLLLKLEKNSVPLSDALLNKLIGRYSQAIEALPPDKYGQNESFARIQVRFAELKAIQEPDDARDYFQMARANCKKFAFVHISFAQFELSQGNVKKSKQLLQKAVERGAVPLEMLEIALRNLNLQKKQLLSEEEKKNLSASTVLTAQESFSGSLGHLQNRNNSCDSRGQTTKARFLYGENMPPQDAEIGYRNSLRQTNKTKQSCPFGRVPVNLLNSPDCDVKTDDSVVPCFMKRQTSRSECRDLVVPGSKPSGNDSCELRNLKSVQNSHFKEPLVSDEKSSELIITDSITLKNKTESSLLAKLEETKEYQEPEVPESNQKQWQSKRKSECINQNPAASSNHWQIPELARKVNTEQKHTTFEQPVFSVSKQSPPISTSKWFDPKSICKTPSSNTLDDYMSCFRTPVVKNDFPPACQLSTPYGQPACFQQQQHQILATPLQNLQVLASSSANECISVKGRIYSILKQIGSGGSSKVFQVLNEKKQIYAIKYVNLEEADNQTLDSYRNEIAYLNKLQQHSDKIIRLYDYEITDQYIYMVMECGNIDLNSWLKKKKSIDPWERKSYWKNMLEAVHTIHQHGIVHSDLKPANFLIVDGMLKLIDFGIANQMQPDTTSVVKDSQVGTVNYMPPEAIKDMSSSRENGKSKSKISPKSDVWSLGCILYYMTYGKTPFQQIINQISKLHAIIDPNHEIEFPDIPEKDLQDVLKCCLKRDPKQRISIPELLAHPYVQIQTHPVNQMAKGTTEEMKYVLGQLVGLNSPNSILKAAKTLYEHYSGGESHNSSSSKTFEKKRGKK
B2: Kinetochore protein NDC80 homolog (Homo sapiens), O14777 (parent)
chain: MKRSSVSSGGAGRLSMQELRSQDVNKQGLYTPQTKEKPTFGKLSINKPTSERKVSLFGKRTSGHGSRNSQLGIFSSSEKIKDPRPLNDKAFIQQCIRQLCEFLTENGYAHNVSMKSLQAPSVKDFLKIFTFLYGFLCPSYELPDTKFEEEVPRIFKDLGYPFALSKSSMYTVGAPHTWPHIVAALVWLIDCIKIHTAMKESSPLFDDGQPWGEETEDGIMHNKLFLDYTIKCYESFMSGADSFDEMNAELQSKLKDLFNVDAFKLESLEAKNRALNEQIARLEQEREKEPNRLESLRKLKASLQGDVQKYQAYMSNLESHSAILDQKLNGLNEEIARVELECETIKQENTRLQNIIDNQKYSVADIERINHERNELQQTINKLTKDLEAEQQKLWNEELKYARGKEAIETQLAEYHKLARKLKLIPKGAENSKGYDFEIKFNPEAGANCLVKYRAQVYVPLKELLNETEEEINKALNKKMGLEDTLEQLNAMITESKRSVRTLKEEVQKLDDLYQQKIKEAEEEDEKCASELESLEKHKHLLESTVNQGLSEAMNELDAVQREYQLVVQTTTEERRKVGNNLQRLLEMVATHVGSVEKHLEEQIAKVDREYEECMSEDLSENIKEIRDKYEKKATLIKSSEE
partner: B1 partner

Variants of: B1
Conditions: with TTK

Variant	effect of a mutation on the interaction
METLSFPRYNVAEIVIHIRNKILTGADGKNLTKNDLYPNPKPEVLHMIYMRALQIVYGIRLEHFYMMPVNSEVMYPHLMEGFLPFSNLVTHLDSFLPICRVNDFETADILCPKAKRTSRFLSGIINFIAFREACRETYMEFLWQYKSSADKMQQLNAAHQEALMKLERLDSVPVEEQEEFKQLSDGIQELQQSLNQDFHQKTIVLQEGNSQKKSNISEKTKRLNELKLSVVSLKEIQESLKTKIVDSPEKLKNYKEKMKDTVQKLKNARQEVVEKYEIYGDSVDCLPSCQLEVQLYQKKIQDLSDNREKLASILKESLNLEDQIESDESELKKLKTEENSFKRLMIVKKEKLATAQFKINKKHEDVKQYKRTVIEDCNKVQEKRGAVYERVTTINQEIQKIKLGIQQLKDAAEREKLKSQEIFLNLKTALEKYHDGIEKAAEDSYAKIDEKTAELKRKMFKMST [H129A]	decreasing interaction strength
METLSFPRYNVAEIVIHIRNKILTGADGKNLTKNDLYPNPKPEVLHMIYMRALQIVYGIRLEHFYMMPVNSEVMYPHLMEGFLPFSNLVTHLDSFLPICRVNDFETADILCPKAKETSRFLSGIINFIHFREACRETYMEFLWQYKSSADKMQQLNAAHQEALMKLERLDSVPVEEQEEFKQLSDGIQELQQSLNQDFHQKTIVLQEGNSQKKSNISEKTKRLNELKLSVVSLKEIQESLKTKIVDSPEKLKNYKEKMKDTVQKLKNARQEVVEKYEIYGDSVDCLPSCQLEVQLYQKKIQDLSDNREKLASILKESLNLEDQIESDESELKKLKTEENSFKRLMIVKKEKLATAQFKINKKHEDVKQYKRTVIEDCNKVQEKRGAVYERVTTINQEIQKIKLGIQQLKDAAEREKLKSQEIFLNLKTALEKYHDGIEKAAEDSYAKIDEKTAELKRKMFKMST [R116E]	decreasing interaction strength
METLSFPRYNVAEIVIHIRNKILTGADGKNLTKNDLYPNPKPEVLHMIYMRALQIVYGIRLEHFYMMPVNSEVMYPHLMEGFLPFSNLVTHLDSFLPICRVNDFETADILCPKAKRTSRFLSGIIAFIHFREACRETYMEFLWQYKSSADKMQQLNAAHQEALMKLERLDSVPVEEQEEFKQLSDGIQELQQSLNQDFHQKTIVLQEGNSQKKSNISEKTKRLNELKLSVVSLKEIQESLKTKIVDSPEKLKNYKEKMKDTVQKLKNARQEVVEKYEIYGDSVDCLPSCQLEVQLYQKKIQDLSDNREKLASILKESLNLEDQIESDESELKKLKTEENSFKRLMIVKKEKLATAQFKINKKHEDVKQYKRTVIEDCNKVQEKRGAVYERVTTINQEIQKIKLGIQQLKDAAEREKLKSQEIFLNLKTALEKYHDGIEKAAEDSYAKIDEKTAELKRKMFKMST [N126A]	disrupting interaction strength
METLSFPRYNVAEIVIHIRNKILTGADGKNLTKNDLYPNPKPEVLHMIYMRALQIVYGIRLEHFYMMPVNSEVMYPHLMEGFLPFSNLVTHLDSFLPICRVNKFETADILCPKAKRTSRFLSGIINFIHFREACRETYMEFLWQYKSSADKMQQLNAAHQEALMKLERLDSVPVEEQEEFKQLSDGIQELQQSLNQDFHQKTIVLQEGNSQKKSNISEKTKRLNELKLSVVSLKEIQESLKTKIVDSPEKLKNYKEKMKDTVQKLKNARQEVVEKYEIYGDSVDCLPSCQLEVQLYQKKIQDLSDNREKLASILKESLNLEDQIESDESELKKLKTEENSFKRLMIVKKEKLATAQFKINKKHEDVKQYKRTVIEDCNKVQEKRGAVYERVTTINQEIQKIKLGIQQLKDAAEREKLKSQEIFLNLKTALEKYHDGIEKAAEDSYAKIDEKTAELKRKMFKMST [D103K]	decreasing interaction strength
METLSFPRYNVAEIVIHIRNKILTGADGKNLTKNDLYPNPKPEVLHMIYMRALQIVYGIRLEHFYMMPVNSEVMYPHLMEGFLPFSNLVTHLDSFLPICRVNDFETADILCPKAERTSRFLSGIINFIHFREACRETYMEFLWQYKSSADKMQQLNAAHQEALMKLERLDSVPVEEQEEFKQLSDGIQELQQSLNQDFHQKTIVLQEGNSQKKSNISEKTKRLNELKLSVVSLKEIQESLKTKIVDSPEKLKNYKEKMKDTVQKLKNARQEVVEKYEIYGDSVDCLPSCQLEVQLYQKKIQDLSDNREKLASILKESLNLEDQIESDESELKKLKTEENSFKRLMIVKKEKLATAQFKINKKHEDVKQYKRTVIEDCNKVQEKRGAVYERVTTINQEIQKIKLGIQQLKDAAEREKLKSQEIFLNLKTALEKYHDGIEKAAEDSYAKIDEKTAELKRKMFKMST [K115E]	decreasing interaction strength
METLSAARYNVAEIVIHIRNKILTGADGKNLTKNDLYPNPKPEVLHMIYMRALQIVYGIRLEHFYMMPVNSEVMYPHLMEGFLPFSNLVTHLDSFLPICRVNDFETADILCPKAKRTSRFLSGIINFIHFREACRETYMEFLWQYKSSADKMQQLNAAHQEALMKLERLDSVPVEEQEEFKQLSDGIQELQQSLNQDFHQKTIVLQEGNSQKKSNISEKTKRLNELKLSVVSLKEIQESLKTKIVDSPEKLKNYKEKMKDTVQKLKNARQEVVEKYEIYGDSVDCLPSCQLEVQLYQKKIQDLSDNREKLASILKESLNLEDQIESDESELKKLKTEENSFKRLMIVKKEKLATAQFKINKKHEDVKQYKRTVIEDCNKVQEKRGAVYERVTTINQEIQKIKLGIQQLKDAAEREKLKSQEIFLNLKTALEKYHDGIEKAAEDSYAKIDEKTAELKRKMFKMST [F6A;P7A]	disrupting interaction strength

Variants of: B2
Conditions: with TTK

Variant	effect of a mutation on the interaction
K166E	decreasing interaction strength
K89E;K166E	decreasing interaction strength
K89E	decreasing interaction strength
